Measured values as given in patent US7018836B1, “P-TEFb compositions, methods and screening assays” (priority 1996, dated 2006).

B1: DBS: Drosophila P-TEFb small subunit, HIS-tagged recombinant (protein)
chain: MAHMSHMLQQPSGSTPSNVGSSSSRTMSLMEKQKYIEDYDFPYCDESNKYEKVAKIGQGTFGEVFKAREKKGNKKFVAMKKVLMDNEKEGFPITALREIRILQLLKHENVVNLIEICRTKATATNGYRSTFYLVFDFCEHDLAGLLSNMNVKFSLGEIKKVMQQLLNGLYYIHSNKILHRDMKAANVLITKHGILKLADFGLARAFSIPKNESKNRYTNRVVTLWYRPPELLLGDRNYGPPVDMWGAGCIMAEMWTRSPIMQGNTEQQQLTFISQLCGSFTPDVWPGVEELELYKSIELPKNQKRRVKERLRPYVKDQTGCDLLDKLLTLDPKKRIDADTALNHDFFWTDPMPSDLSKMLSQHLQSMFEYLAQPRRSNQMRNYHQQLTTMNQKPQDNSMIDRVW
modifications: left off: small tags and cut ends
notes: Drosophila P-TEFb small subunit, HIS-tagged recombinant
B2: Tat: 86 residue HIV-1 Tat followed by a streptavidin binding tag at its carboxyl terminus (protein)
chain: MEPVDPRLEPWKHPGSQPKTACTNCYCKKCCFHCQVCFITKALGISYGRKKRRQRRRAHQNSQTHQASLSKQPTSQPRGDPTGPKE
modifications: left off: large carriers

Key:
RNA polymerase II = assay: Kinase assay of recombinant P-TEFb subunits with RNA polymerase II as substrate (Table 1); type: biochemical, Drosophila; details: RNA polymerase II as substrate
Procedure: 0.4 μl of purified RNA polymerase II and various protein samples were mixed in 18 μl of 55 mM HMK. The reaction was then initiated by the addition of 2 μl of a solution containing 2 μCi of [γ-^32P]ATP (ICN) and unlabeled ATP at 10 μM, or only unlabeled ATP at concentrations from 1 to 100 μM or other NTPs or dNTPs at concentrations of 1 to 100 μM. Reactions were incubated for the indicated times at 23° C. and then terminated with SDS loading buffer. Samples were analyzed on a 6–15% SDS polyacrylamide gel which was silver stained, dried and subjected to autoradiography if the assay contained label.
Using the CTD Kinase assay, as previously described in Example 2, Section A.7, both HBL1-1 (SEQ ID NO:45), HBL2(SEQ ID NO:47) and HBL3 (SEQ ID NO:50) were substituted for the large subunit in the Drosophila transcription system. Alone “PITARLE” has little kinase activity and no detectable activity in transcription.

[1] = system: transcription in Drosophila extract depleted of P-TEFb; assay: Transcription activity of recombinant protein added into Drosophila extract depleted of P-TEFb (Table 1); type: biochemical
[2] = system: transcription from HIV-1 LTR; assay: In vitro Tat transactivation in HNE with TAR and DTAR templates (FIG. 8); type: biochemical, human
Procedure: The transcription template (Nco I-digested pLTR-4/CAT vector containing the HIV-1 LTR from −153 to +80) was used in a pulse-chase transcription experiment. Reactions (12 μl total; 20 mM HEPES, pH 7.6, 7 mM MgCl2, 20 μg/ml DNA template, 3 μl HNE, 64 mM KCl, with 50 μM DRB or 0.3 μl Drosophila P-TEFb (Marshall et al., 1996) as indicated) were pre-incubated for 20 minutes at 30° C., pulsed for 2 minutes by adding ATP, GTP, UTP to 600 μM each and 5 μCi [α-^32P]CTP (˜0.1 mM), and chased for 5 minutes by adding CTP to 1.2 mM. Reactions were stopped, phenol extracted and analyzed on a 6% polyacrylamide gel as described (Marshall and Price, 1995). pLTR-TAR-Luc and pLTR-DTAR-Luc plasmids were digested with Eco RI to generate TAR and DTAR template that were used in the studies. The TAR template contains HIV-1 LTR from −475 to +76, while the DTAR template contains HIV-1 LTR from −475 to +19. Transcription with TAR and DTAR templates generates runoffs of 694 and 646 nucleotides, respectively. The transcription reaction mix contained 20 mM HEPES (pH7.6), 7 mM MgCl2, 60 mM KCl, 0.5 μl HNE (or depHNE as indicated), 20 μg/ml TAR template (or DTAR template as indicated), indicated amount of HIV-1 Tat (86 residue HIV-1 Tat followed by a streptavidin binding tag at its carboxyl terminus) and DRB. The reaction mix was pre-incubated for 15 minutes at 30° C. and the transcription was started by adding nucleotides to final concentrations of 50 μM ATP, 50 μM GTP, 50 μM UTP, 10 μM CTP, and 5 μCi [α-^32P]CTP (˜0.1 mM), and continuously labeled for 20 minutes, or by adding nucleotides to final concentrations of 50 μM ATP, 50 μM GTP, 50 μM UTP, and 5 μCi [α-^32P]CTP (˜0.1 mM), and pulsed for 2 minutes. The reactions were stopped and reaction mix were phenol-extracted. The transcripts were then analyzed on a 6% polyacrylamide gel as described (Marshall and Price, 1995).

Molecule | Kinase activity (RNA polymerase II) | Transcription activity [1] | stimulation of generation of runoff ([2]; HNE not depleted, TAR template, continuous labeling, 10 ng/μl Tat) | increase of runoff in presence of 50 μM DRB, DTAR template or absence of human P-TEFb ([2]; continuous labeling) | increase of transcription initiation (short pulsed transcripts) ([2]; pulse-only protocol, 10 ng/μl Tat)
B1 | very little | none |  |  | 
B2 |  |  | about 12 fold | about two | about two
